Experimental findings from patent US20030108549A1 (GENETICS INSTITUTE, published 2003) are described below.

In this assay the target is T1, human MU-1 Ig fusion protein (human, UniProt Q9HBE5 20-235).
T1 construct: also called MUFc; human Ig fusion protein; not shown: Ig portion
The assay can be described thus: Biacore; MU-1 Ig fusion immobilized on chip. How it is done:
Both human and murine Ig fusion proteins were constructed and immobilized on Biacore chips in an effort to identify the ligand for MU-1. A variety of cell culture conditioned media as well as a panel of known cytokines were evaluated for binding to MU-1. Some cytokines were also tested in combination with other receptor chains in the family to consider the possibility that MU-1 may require a second receptor chain for ligand binding. The following cytokines were tested and found to be negative for MU-1 binding: mIL-2, hIL-2, hIL-i5, mIL-7, TSLP, TSLP+IL7, TSLP+IL7R, TSLP+IL7g, TSLP+IL-2, TSLP+1L2+IL2Rbeta, IL2Rbeta, IL2Rgamma, IL7R, IL2+2Rbeta, IL2+2Rgamma, IL1 5+IL2Rbeta, 1L15+2Rgamma, 1IL7+2Rgamma, IL2+IL7R, IL1 5+IL7R, IL7+IL7R. Known receptors have been immobilized as well and tested for MUFc binding with negative results. IL-IS will bind to IL2Rb but not IL2Rg or MUFc.
(In SPR one partner is held on a chip, and binding of the other changes the refractive index at the surface.)

T1 sequence (Q9HBE5 20-235): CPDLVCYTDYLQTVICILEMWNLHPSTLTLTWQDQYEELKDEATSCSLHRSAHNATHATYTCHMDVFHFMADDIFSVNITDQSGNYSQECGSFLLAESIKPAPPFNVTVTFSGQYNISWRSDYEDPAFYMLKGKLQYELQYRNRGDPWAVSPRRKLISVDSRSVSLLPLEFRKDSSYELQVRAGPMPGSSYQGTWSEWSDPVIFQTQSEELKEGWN

B1: mIL-7 (ligand, mouse, UniProt P10168 26-154, looked up)
chain: ECHIKDKEGKAYESVLMISIDELDKMTGTDSNCPNNEPNFFRKHVCDDTKEAAFLNRAARKLKQFLKMNISEEFNVHLLTVSQGTQTLVNCTSKEEKNVKEQKKNDACFLKRLLREIKTCWNKILKGSI
B1: the binding result is “no binding”.

B2: mIL-2 (ligand, mouse, UniProt P04351 21-169, looked up)
chain: APTSSSTSSSTAEAQQQQQQQQQQQQHLEQLLMDLQELLSRMENYRNLKLPRMLTFKFYLPKQATELKDLQCLEDELGPLRHVLDLTQSKSFQLEDAENFISNIRVTVVKLKGSDNTFECQFDDESATVVDFLRRWIAFCQSIISTSPQ
Regarding B2, the binding result is “no binding”.
